Data on two molecules can be found in publication PMC10074858.

The target in test [1] is alpha-fetoprotein receptor (human (endogenous in tumor cell lines)). The test is described as follows: plate-reader fluorescence of labeled protein bound to and internalized by cells; 0.5 µM F-ACT-101 (Alexa Fluor 647) with tumor cells at 37 °C for 0.5, 2 and 5 h, stopped on ice, cells washed, sonicated with DMSO, fluorescence read; background subtracted; binding/internalization as ng per million cells; n = 3.

Test [2] has the same target. Description: flow cytometry on cells; COLO-205 or U937 cells, F-ACT-101 (Alexa Fluor 488) at 1, 3, 10, 30 and 100 µg/mL in cold PBS for 1 h on ice; percent of cells positive. A general note: In flow cytometry, cells or beads pass a laser one at a time.

B1: Fluorescently labeled ACT-101 (Alexa Fluor 647) (ligand)
chain: RTLHRNEYGIASILDSYQCTAEISLADLATIFFAQFVQEATYKEVSKMVKDALTAIEKPTGDEQSSGCLENQLPAFLEELCHEKEILEKYGHSDCCSQSEEGRHNCFLAHKKPTPASIPLFQVPEPVTSCEAYEEDRETFMNKFIYEIARRHPFLYAPTILLWAARYDKIIPSCCKAENAVECFQTKAATVTKELRESSLLNQHACAVMKNFGTRTFQAITVTKLSQKFTKVQFTEIQKLVLDVAHVHEHCCRGDVLDCLQDGEKIMSYICSQQDTLSNKITECCKLTTLERGQCIIHAENDEKPEGLSPNLNRFLGDRDFNQFSSGEKNIFLASFVHEYSRRHPQLAVSVILRVAKGYQELLEKCFQTENPLECQDKGEEELQKYIQESQALAKRSCGLFQKLGEYYLQNAFLVAYTKKAPQLTSSELMAITRKMAATAATCCQLSEDKLLACGEGAADIIIGHLCIRHEMTPVNPGVGQCCTSSYANRRPCFSSLVVDETYVPPAFSDDKFIFHKDLCQAQGVALQTMKQEFLINLVKQKPQITEEQLEAVIADFSGLLEKCCQGQEQEVCFAEEGQKLISKTRAALGV
modifications: Alexa Fluor 647 label (protein labeling kit); sites not stated
Take B1: in test [1], the ng F-ACT-101 per million cells (COLO-205, 0.5 h) (ng/million cells) amounted to 6.9; the ng F-ACT-101 per million cells (COLO-205, 2 h) (ng/million cells) was found to be 33.6; the ng F-ACT-101 per million cells (COLO-205, 5 h) (ng/million cells) worked out at 75; the ng F-ACT-101 per million cells (H522, 0.5 h) (ng/million cells) was determined as 55.6. Also, in test [1], the ng F-ACT-101 per million cells (H522, 2 h) (ng/million cells) was determined as 27.1; the ng F-ACT-101 per million cells (H522, 5 h) (ng/million cells) was determined as 71.3; the ng F-ACT-101 per million cells (MCF-7, 0.5 h) (ng/million cells) came out at 51; the ng F-ACT-101 per million cells (MCF-7, 2 h) (ng/million cells) is 53.6. Besides, in test [1], the ng F-ACT-101 per million cells (MCF-7, 5 h) (ng/million cells) was determined as 126; the ng F-ACT-101 per million cells (OVCAR-3, 0.5 h) (ng/million cells) worked out at 67; the ng F-ACT-101 per million cells (OVCAR-3, 2 h) (ng/million cells) was 21.2; the ng F-ACT-101 per million cells (OVCAR-3, 5 h) (ng/million cells) worked out at 71. In test [1], this molecule had a ng F-ACT-101 per million cells (SKOV-3, 0.5 h) (ng/million cells) of 31.3; a ng F-ACT-101 per million cells (SKOV-3, 2 h) (ng/million cells) of 9.2; a ng F-ACT-101 per million cells (SKOV-3, 5 h) (ng/million cells) of 16; a ng F-ACT-101 per million cells (U937, 0.5 h) (ng/million cells) of 29.5. Further, in test [1], the ng F-ACT-101 per million cells (U937, 2 h) (ng/million cells) was 67.1 and the ng F-ACT-101 per million cells (U937, 5 h) (ng/million cells) is 84.3.

B2: Fluorescently labeled ACT-101 (Alexa Fluor 488) (ligand)
chain: B1 chain
modifications: Alexa Fluor 488 label (microscale protein labeling kit); sites not stated
B2: in test [2], the percent of cells positive for binding (COLO-205, at 100 µg/mL) worked out at 90% and the percent of cells positive for binding (U937, at 100 µg/mL) was found to be 90%.
